Measurements taken from patent publication US20250034594A1, “RNA-GUIDED GENOME RECOMBINEERING AT KILOBASE SCALE” (THE BOARD OF TRUSTEES OF THE LELAND STANFORD JUNIOR …, priority 2021, published 2025).

B1: SSAP_140: SEQ ID NO: 309; Staphylococcus equorum (protein, listed as Staphylococcus equorum)
chain: ATNETLKQKVVERKPNGVKEQSPKTQLNHLLKKMAPEIQRALPKHMDSDRMARIAMTAVSNTPKLLECDQMSFIAALMQASQLGVEPNTGLGQAYLIPYAGKVQFQLSYKGLIDLATRSGQYKSIYAHEVYTNDEFEYRYGLFKDLIHIPSQEPEGNPIGYYAVYHLKNGGYDFVYWTRERVDKHAKEFSQAVQKGWTSPWITNYDAMAKKTVLKEVLKYAPKSIEMNKAVENDSTIKEEIDKDMSTVIDVTDYSEVEEQESLETGGQTSK
B2: SSAP_170: SEQ ID NO: 339; Dorea longicatena (protein, listed as Dorea longicatena)
chain: TVGKTDEIKQELARKVENTKAGTKLKKSMSIADMIKVMEPQIKKALPEVITPERFTRMALSALNTTPKLNECTPMSFLAALMNAAQLGLEPNTPLGQAFLIPYNNKGKMECQFQLGYKGLIDLSYRNPNMQIITAHTVYENDEFEYELGLNPCLDHRPTLGERGEIRLFYGLFKLTNGGFGFEVMSKTAMDDFAKEYSKAFDSSFSPWRTNYESMALKTIIKKALKYAPLKSEFRNALSTDETIKNEIGADMSEINSENIFDTVYQEECA
B3: SSAP_227: SEQ ID NO: 396; Streptococcus parauberis (protein, listed as Streptococcus parauberis)
chain: ANQLTVVNTLQSDAVKEKFEAVMGEKANGFVSSVLSVVTNNNILSKADFNSVYTSAMKAAVLDLPVEPSLGMAHIVPYKGKAQFQIGYKGLIQLALRSGQVVGLNAGKVYEGQFKSFNALTEKLDIVDIYNPKKDEPIVGYFAYMKLSNGFEKTTYWTKEQVEEHGKKYSQSYDSKFSPWQTNFDAMARKTVLKSILSTYAPLTIEMQNANDFDNGKNTGIEPLEVKDVTPETDNESLLTDLLEDEPSVNTETGEIIEDTELDLDYGQINAK
B4: SSAP_27: SEQ ID NO: 196 (protein)
chain: SNNQLSTQQAKRDIAIDTSVWTFQDVKRYFDPQNLLTEKQVGQALSLIKGRNLNPLANEVYIVAYKKKTGGTEFSLIVSKEAFLKRAAQNPNYEGFEAGVVTVDTDGVMHERKGALMLPGDTLVGGWARVYRKNFKVPVEIFVSREEYDKKQSTWNAMPATMIRKTALVNALREAFPEDLGNMYTEDDGGETFDRIKQAEPVESREDVMARKMAQIEQMKQEQAQRQIDTSYPTDDVIDPDDEPAQGELLEDLEY
B5: SSAP_74: SEQ ID NO: 243 (protein)
chain: SNPPLAQADLQKTQGTEVKTKTKDQQLIHFINQPSMKAQLAAALPRHMTPDRMIRIVTTEIRKTPALANCDMQSFIGAVVQCSQLGLEPGNALGHAYLLPFGNGKAKSGQSNVQLIIGYRGMIDLARRSNQIISISARTVRQGDSFHFEYGLNENLTHVPGENEDSPITHVYAVARLKDGGVQFEVMTHNQIEKVRASSKAGQNGPWVSHWEEMAKKTVIRRLFKYLPVSIEMQKAVILDEKAEANVDQENASVFEGEFEEVSQSA
B6: SSAP_28: SEQ ID NO: 197 (protein)
chain: AITPNPIPAQDGSPIPSPDDIVGELARRKIYAGIPDDDVALALALCQKYGFDPLLKHLVLLATKDRDETTGQGQKHYNAYVTRDGLLHVAHTSGMLDGLETIQGKDDLGEWAEAVVYRKDMSRPFRYRVYLSEYVREAKGVWKTHPQAMLTKTAEVFALRRAFDVALTPFEEMGFDNQNIAGDTGPSPKTGFTEKAGFTGNTDFSAEASLPGKARFSTEAGLTDMTVIPPNRVTGSIPETSRLNTSAGSTGRQRRQLF
B7: SSAP_259: SEQ ID NO: 428; Virgibacillus chiguensis (protein, listed as Virgibacillus chiguensis)
chain: ATNSSLKNQIANKGNGNQNTPQGYTVKQLMSASSVKNRFEETLGKKAPQFMASVINLVNGDTNLQKCDQMSVVSSAMVAAALDLPIDKNLGYAWVVPYGNKATFQMGYKGYIQLALRTGQYKNINVIEVYEGEVKSFNRLTEEIELEFEGKESDKVIGYVGYFELINGFRKTVYWSKDEIERHKKRFSKTGFAWKDNYDAMAKKTVIRNMLNKWGILSIDMQTAVTTDGNAVTQDFEQEDSGLVIDAEFSEVNEASEGQQEIKFENADA
B8: SSAP_258: SEQ ID NO: 427; Clostridium thermopalmarium (protein, listed as Clostridium thermopalmarium)
chain: ATVNELKNEIATKKETGVGSAGNTIKGLINSPAIKKRFEDVLNKKAPQYMSSIVNLVNGDTNLKKCDQMSVIASCMVAATLDLPIDKNLGYAWIVPYGNRAQFQLGYKGYVQLALRTGQYKAINVIEVHEGELIEWNPLTEELKIDFSQKKSDAIIGYAGYFELLNGFKKSTYWTKEQIIRHKNKFSKSDFGWKKDFDAMAKKTVLRNMLSKWGILSIEMQNAYTADQATIRPEAVETGDIKGNVDYVEADFEENYEGTPFEEVEEGGVNE
B9: SSAP_62: SEQ ID NO: 231 (protein)
chain: SEISKAVATQQNPLAVVARYKRELGTVLPTVLRQDPDRWLMAAENAARKNPDIMAVTKADQGASYMRALVECARLGHEPGSKDFHFIKRGNAISGEESYRGIIKRVLNSGFYRSVVARTVFSNDTYSFDPLTDIVPNHVPAQGDRGKPLSAYAFAVHWDGTPSTVAEATPERIATAKAKSFASDKPTSPWQLPTGVMYRKTAIRELEPYVHVAPEPQPRRHLDGTVGGIPATDFDVDDGDVLDITADQLAEAGEIV
B10: SSAP_251: SEQ ID NO: 420; Hathewaya proteolytica (protein, listed as Hathewaya proteolytica)
chain: ADSKKELILKESYSVLDRLIETKISAMPKDFNRTRFLQNCMTVLQDTKDIEKCQPISVARTLLKGAFLGLDFFQKECYAIPYGGTLQFQTDYKGETKMAKKYSIRPIKDIYAKVVREDDLFEEEIKEGQQFVNFKPIPFSDKPIIGAFAVVLYQDGGMEYETMSKTQIEGIRDNFSKMKNGLMWTKTPEEAYKKTVLRRLTKKIEKDFDTIEQAKTYEETSDSEFKKEEKCNEKSVFDVEYSEVESEELEQQTMLENSPFGGEQ
B11: SSAP_247: SEQ ID NO: 416; Ruminococcus sp. CAG: 579 (protein, listed as Ruminococcus sp.)
chain: NERTNLQYAPAPVERFKECLNSHEIKARLKNSLKNNWTQFQTSMLDLYSGDAYLQKCDPMAVALECVKAATLDLPISKSLGFAYVVPYNNVPTFTLGYKGLIQLAQRTGQYRTINADVVYEGEIRGADKLSGMVDLSGERTGDEVVGYFAYFKLINGFEKMIYMTRAEAEKWRDDYSPSAKSKYSPWRTDFDKMALKTCIRRLISKYGIMSVEMQGVMTEEAEPRAAAAAKRAEETVQANANSKVIDIDAAPPAANESPAEAAPQPDF
B12: SSAP_176: SEQ ID NO: 345; Absicoccus porci (protein, listed as Absicoccus porci)
chain: TTTNQQGMITKKANNSVAKKTNRTMKDYITMYQGEIAKALPSVMTPERFVRIATTAVTNTPKLASCTPQSFIGALLNAAQLGLEPNTPLGQAYLIPYGNQCQFQIGYLGMVELAQRAGTNVDAHVVYANDEFDYSLGLHPDIKHVPAMKDRGEAIAYYAVWHNGENFGFEVMSREDVEKHMKKYSKTYSNGPWKTEFDEMAKKTVLKRALKYAPKKTDLARAVMQDETIKQFNPKADNDMADAKNDFFDVEYDEVDENTDPVTGEVK
B13: SSAP_244: SEQ ID NO: 413; Nicoletella semolina (protein, listed as Nicoletella semolina)
chain: LKNADPQSVFNAACMAATLNLPIQNGLGFAYIVPYQNKKEKKTEAQFQLGYKGLIQLAQRSGQFKRLVAVPVYEKQLIAEDPINGFEFDWKQKPENGEKPIGYYAYFKLLNDFTAELYMTTHEVDEHAQRYSQTYRTYLDKKSKGQWASSVWADNFEAMALKTVMKLLLSKQAPLSVEMQQAVLADQAVVKNVETNEFSYVDNQIEEAEYTELKVSTDIFEKCKQSILNKETTLQELCDSGYEFSQEQYAELEKLEVE

Assays:
Assay type in all cases: cell-based
gene editing with Cas9 = test: Screen of 322 new SSAP proteins, gene editing activity with Cas9 (Table 5); set-up: Cas9 with SSAP activity: scale not given here
How it was run: (§1)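 The 322 SSAP proteins were found in sequence data and then synthesized. Each was screened for gene editing activity when paired with Cas9 and with dCas9.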

gene editing with dCas9 = test: Screen of 322 new SSAP proteins, gene editing activity with dCas9 (Table 5); set-up: dCas9 with SSAP activity: scale not given here
How it was run: as §1

[1] = system: gene editing with Cas9 and dCas9; test: Screen of 322 new SSAP proteins, activity across all experiments (Cas9 and dCas9, Table 5); set-up: scale not given here
How it was run: as §1

Molecule	Cas9 with SSAP activity (gene editing with Cas9)	Cas9 with SSAP activity (normalized) (gene editing with Cas9)	dCas9 with SSAP activity (gene editing with dCas9)	dCas9 with SSAP activity (normalized) (gene editing with dCas9)	Activity across all experiments [1]
B1	−1.374	−0.848	−5.000	−0.780	−3.187
B2	2.314	1.852	−4.682	−0.968	−1.184
B3	−0.330	−0.310	−4.819	−0.774	−2.575
B4	−2.642	−0.956	−4.680	−0.675	−3.661
B5	0.893	0.751	0.668	0.984	0.781
B6	0.503	0.506	−4.957	−0.886	−2.227
B7	−2.773	−0.529	−4.841	−1.414	−3.807
B8	−3.280	−0.553	−4.748	−0.956	−4.014
B9	−2.135	−1.289	−4.940	−0.604	−3.538
B10	−0.983	−1.345	−5.041	−0.760	−3.012
B11	−2.602	−3.388	0.549	0.332	−1.027
B12	1.105	2.418	−4.682	−0.680	−1.789
B13	−8.469	–	−4.966	−0.819	−6.718
